Laboratory results published in article PMC12622308.

Biological target: KFERQ-PAmCherry-Flag
Experiment: co-IP (IP: HA, IB: Flag), western blot quantification
Details: HEK293T SIRT2KD cells; parent: est. 1.0; read off a plot

ratio to parent: 1.6
Substance: HSC70-HA WT (from UniProt P11142) K557R
